# Measured values as given in the Immune Epitope Database (IEDB).
# pIC50, pKd: −log10 of the molar value.
# Key:
# HLA-A*02:01 [1] = assay: IEDB peptide-MHC binding, purified MHC/competitive/radioactivity; filed as Kd, often an IC50 or EC50 that approximates it; ≥ and ≤ were set here for values at or beyond the usual limits of such assays
# HLA-A*02:17 = assay: as above
# HLA-A*02:03 = assay: as above
# HLA-A*02:06 = assay: as above
# HLA-B*15:03 = assay: as above; conditions: source organism: Vaccinia virus WR
# HLA-A*02:02 = assay: as above; conditions: source organism: Vaccinia virus WR
# HLA-B*08:01 [2] = assay: as above
# HLA-A*03:01 [3] = assay: IEDB peptide-MHC binding, purified MHC/competitive/fluorescence; ≥ and ≤ were set here for values at or beyond the usual limits of such assays
# HLA-B*15:01 [4] = assay: as above
# HLA-A*11:01 [5] = assay: as above
# HLA-A*02:01 [6] = assay: as above
# HLA-A*24:02 = assay: as above
# HLA-A*32:01 = assay: IEDB peptide-MHC binding, purified MHC/competitive/radioactivity; filed as Kd, often an IC50 or EC50 that approximates it; ≥ and ≤ were set here for values at or beyond the usual limits of such assays; conditions: source organism: Vaccinia virus WR
# HLA-A*30:01 = assay: as above; conditions: source organism: Vaccinia virus WR
# HLA-B*15:01 [7] = assay: as above; conditions: source organism: Vaccinia virus WR
# HLA-B*58:01 = assay: IEDB peptide-MHC binding, purified MHC/direct/fluorescence; filed as Kd, often an IC50 or EC50 that approximates it; ≥ and ≤ were set here for values at or beyond the usual limits of such assays
# HLA-B*57:01 = assay: as above
# HLA-B*08:01 [8] = assay: as above; conditions: source organism: West Nile virus
# HLA-A*31:01 = assay: as above
# HLA-A*03:01 [9] = assay: as above
# HLA-A*02:01 [10] = assay: as above; conditions: source organism: West Nile virus
# HLA-B*07:02 = assay: as above
# HLA-A*01:01 = assay: as above
# HLA-A*29:02 = assay: as above
# HLA-B*18:01 = assay: as above; conditions: source organism: West Nile virus
# HLA-A*11:01 [11] = assay: as above; conditions: source organism: West Nile virus
# HLA-B*40:01 = assay: as above; conditions: source organism: West Nile virus
# HLA-B*46:01 = assay: as above; conditions: source organism: West Nile virus
# HLA-A*69:01 = assay: as above; conditions: source organism: West Nile virus
# HLA-B*27:05 = assay: as above; conditions: source organism: West Nile virus
# HLA-B*39:01 = assay: as above; conditions: source organism: Mycobacterium tuberculosis
# HLA-B*44:02 = assay: as above; conditions: source organism: Mycobacterium tuberculosis
# [12] = source organism: Dengue virus 4 Philippines/H241/1956
# [13] = source organism: Dengue virus 1 Nauru/West Pac/1974
# [14] = source organism: Vaccinia virus WR
# [15] = source organism: Dengue virus 3 China/80-2/1980
# [16] = source organism: Dengue virus 1 Brazil/97-11/1997
# [17] = source organism: Sudan ebolavirus
# [18] = source organism: Zaire ebolavirus
# [19] = source organism: Camelpox virus M-96
# [20] = source organism: Vaccinia virus
# [21] = source organism: West Nile virus
# [22] = source organism: Mycobacterium tuberculosis
# [23] = source organism: Dengue virus 4 Dominica/814669/1981
# [24] = source organism: Dengue virus 1 Singapore/S275/1990
sequence,measurement,setting,value
ALLGAMTAGI,pKd,HLA-A*02:01 [1]; [12],7.60
same,pKd,HLA-A*02:17; [12],6.90
same,pKd,HLA-A*02:03; [12],7.23
AMLDVDLHPA,pKd,HLA-A*02:01 [1]; [13],8.25
same,pKd,HLA-A*02:17; [13],5.96
same,pKd,HLA-A*02:06; [13],8.15
same,pKd,HLA-A*02:03; [13],8.69
CAVNTPVSM,pKd,HLA-B*15:03,7.37
same,pKd,HLA-A*02:02,5.20
same,pKd,HLA-A*02:06; [14],5.82
same,pKd,HLA-A*02:03; [14],4.80
CLMMMLPATL,pKd,HLA-B*08:01 [2]; [15],7.22
same,pKd,HLA-A*02:17; [15],6.60
same,pKd,HLA-A*02:03; [15],8.16
CMSNSRLSF,pKd,HLA-B*15:03,8.99
ELMRRGDLPV,pKd,HLA-A*02:17; [12],4.70
same,pKd,HLA-A*02:03; [16],6.86
FLGEDGCWYG,pKd,HLA-A*02:01 [1]; [12],7.28
same,pKd,HLA-A*02:17; [12],5.98
GFRSGVPPK,pIC50,HLA-A*03:01 [3]; [17],5.42
same,pIC50,HLA-B*15:01 [4]; [17],≤ 4.03
same,pIC50,HLA-A*11:01 [5]; [17],5.49
GLAMGIMML,pKd,HLA-A*02:01 [1]; [13],7.11
same,pKd,HLA-A*02:17; [13],4.82
same,pKd,HLA-A*02:03; [16],9.17
GLFPQLSAI,pIC50,HLA-A*02:01 [6]; [18],6.37
same,pIC50,HLA-B*15:01 [4]; [18],4.99
same,pIC50,HLA-A*24:02; [18],5.10
HLIMFEQYF,pKd,HLA-B*15:03,7.34
ILHSDYQLF,pKd,HLA-B*15:03,8.61
ILTILTIIGL,pKd,HLA-A*02:01 [1]; [12],7.73
same,pKd,HLA-A*02:17; [12],6.34
ISASDMQKF,pKd,HLA-B*15:03,6.09
KINQIIHDF,pIC50,HLA-A*02:01 [6]; [17],≤ 4.10
same,pIC50,HLA-B*15:01 [4]; [17],4.56
same,pIC50,HLA-A*24:02; [17],6.01
KTINALVYF,pKd,HLA-B*15:03,7.64
same,pKd,HLA-B*08:01 [2]; [14],4.77
same,pKd,HLA-A*32:01,8.06
same,pKd,HLA-A*30:01,6.88
same,pKd,HLA-B*15:01 [7],9.44
same,pKd,HLA-B*58:01; [19],7.34
same,pKd,HLA-B*57:01; [19],6.11
LAVLFINSI,pKd,HLA-B*15:03,6.72
LFLDIECHF,pKd,HLA-B*15:03,7.33
same,pKd,HLA-B*08:01 [2]; [14],5.95
same,pKd,HLA-A*32:01,5.46
same,pKd,HLA-A*30:01,7.72
same,pKd,HLA-B*15:01 [7],6.26
LLFGIKCIK,pIC50,HLA-A*03:01 [3]; [20],6.11
same,pIC50,HLA-A*02:01 [6]; [20],6.04
same,pIC50,HLA-B*15:01 [4]; [20],≤ 3.64
same,pIC50,HLA-A*11:01 [5]; [20],6.13
LMTMNIVNF,pKd,HLA-B*15:03,7.78
same,pKd,HLA-A*32:01,5.19
LQKLAQHSI,pKd,HLA-B*15:03,6.61
LVKTESWIL,pKd,HLA-B*08:01 [8],5.72
same,pKd,HLA-A*31:01; [21],≤ 4.70
same,pKd,HLA-A*03:01 [9]; [21],≤ 4.70
same,pKd,HLA-A*02:01 [10],≤ 4.70
same,pKd,HLA-B*07:02; [21],≤ 4.70
same,pKd,HLA-A*01:01; [21],≤ 4.70
same,pKd,HLA-B*58:01; [21],≤ 4.70
same,pKd,HLA-A*29:02; [21],≤ 4.70
same,pKd,HLA-B*18:01,≤ 4.70
same,pKd,HLA-A*11:01 [11],≤ 4.70
same,pKd,HLA-B*40:01,≤ 4.70
same,pKd,HLA-B*57:01; [21],≤ 4.70
same,pKd,HLA-B*46:01,≤ 4.70
same,pKd,HLA-A*69:01,≤ 4.70
same,pKd,HLA-B*27:05,≤ 4.70
QQFYWPVMN,pIC50,HLA-A*02:01 [6]; [18],5.10
same,pIC50,HLA-B*15:01 [4]; [18],4.47
SQAFNTPAL,pKd,HLA-B*39:01,7.51
same,pKd,HLA-A*31:01; [22],≤ 4.70
same,pKd,HLA-A*03:01 [9]; [22],≤ 4.70
same,pKd,HLA-B*07:02; [22],≤ 4.70
same,pKd,HLA-A*01:01; [22],≤ 4.70
same,pKd,HLA-B*44:02,≤ 4.70
same,pKd,HLA-B*58:01; [22],≤ 4.70
same,pKd,HLA-A*29:02; [22],≤ 4.70
same,pKd,HLA-B*57:01; [22],≤ 4.70
SQIITLTAF,pKd,HLA-B*15:03,9.10
same,pKd,HLA-B*08:01 [2]; [14],≤ 4.39
same,pKd,HLA-A*32:01,5.92
same,pKd,HLA-A*30:01,4.79
same,pKd,HLA-B*15:01 [7],9.00
TLLCLIPTV,pKd,HLA-A*02:17; [23],6.82
same,pKd,HLA-A*02:06; [23],8.46
VLFVVTLIPL,pKd,HLA-A*02:01 [1]; [12],7.24
same,pKd,HLA-A*02:17; [12],5.51
VLMLVAHYAI,pKd,HLA-A*02:01 [1]; [24],7.01
same,pKd,HLA-A*02:17; [24],5.74
WQSVGHMMV,pIC50,HLA-A*02:01 [6]; [18],5.81
same,pIC50,HLA-B*15:01 [4]; [18],5.32
